One substance from US20250122267A1 can be followed below.

In the assay the target is serum TGFβ1 of the treated mice (mouse) (UniProt P04202). Description: cell-based or functional assay.
UniProt P04202, sequence (P04202 279-390 limits assumed): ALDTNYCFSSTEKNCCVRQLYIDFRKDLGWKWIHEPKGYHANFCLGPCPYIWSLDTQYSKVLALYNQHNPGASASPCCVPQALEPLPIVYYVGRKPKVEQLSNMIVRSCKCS

“sTGFbR2-Fc(igg2Ae), fusion of the mouse TGFbR2 extracellular domain with the mouse igg domain (Fc fusion)” displayed a serum TGFβ1 after administration of the AAV encoding the soluble receptor (FIG. 2, TGFb1 knockdown versus dosage) of less than 95%.
